Assay results from PMC9352680, “A comprehensive thermodynamic model for RNA binding by the Saccharomyces cerevisiae Pumilio protein PUF4”.

T1: PUF4 RNA-binding domain (Saccharomyces cerevisiae, UniProt P25339 537-888)
T1 sequence: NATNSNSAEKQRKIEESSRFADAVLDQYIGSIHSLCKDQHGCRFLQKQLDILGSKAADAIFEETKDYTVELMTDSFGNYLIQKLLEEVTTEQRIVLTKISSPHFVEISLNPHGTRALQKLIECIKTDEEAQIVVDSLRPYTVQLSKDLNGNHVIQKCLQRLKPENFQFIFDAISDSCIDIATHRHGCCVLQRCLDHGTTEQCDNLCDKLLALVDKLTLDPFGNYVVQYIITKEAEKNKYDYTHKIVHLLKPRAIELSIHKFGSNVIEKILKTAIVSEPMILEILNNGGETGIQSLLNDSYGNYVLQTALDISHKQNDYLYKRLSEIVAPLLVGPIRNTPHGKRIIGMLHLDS


Biological target: T1, PUF4 RNA-binding domain
Assay: Mg; RNA-MaP; 20 mM Na-HEPES pH 7.4, 30 mM KOAc, 0.75 mM MgCl2, 0.1% Tween-20, 5% glycerol, 0.1 mg/mL BSA, 2 mM DTT; 25 C; 0.0125-409.6 nM protein
Conditions: tags: N-His6-TEV cleaved; C-SNAP kept, Cy3B-labelled; label: tethered on chip by stalled RNA polymerase

Row | Binder | Kd [nM]
1 | UCUCUUUGUAUGUUCUCUCUU (ssRNA) [Ic_S1_P4E.1_K4.1_C4.1_H4.1_A4.1_[A6G]_F4.1_[A9C]_T4.1] | 54.6
2 | UCUCUUUGUAUCUUGUCUCUU (ssRNA) [Ib_S1_P4E.1_K4.1_C4.1_H4.1_A4.1_[A6C]_F4.1_[A9G]_T4.1] | 25.9
3 | UCUCUUUGUAUGUUGUCUCUU (ssRNA) [Ib_S1_P4E.1_K4.1_C4.1_H4.1_A4.1_[A6G]_F4.1_[A9G]_T4.1] | 218
4 | Ic_S4_P5E.1_K5.1_C5.1_H5.1_A5.1_[T6A]_[A7C]_F5.1_[T8C]_[T9A]_[A10T]_T5.1 (ssRNA) RNA: UUUGACAACUGAUCGUUCUUUCUUGUAUACCAUUUCUUUCUCGAUCAGUUGUCUUU | 15.4
5 | Ic_S4_P5E.1_K5.1_C5.1_H5.1_A5.1_[T5G]_[A7C]_F5.1_[T8G]_T5.1 (ssRNA) RNA: UUUGACAACUGAUCGUUCUUUCUUGUAGUCGUAUUCUUUCUCGAUCAGUUGUCUUU | 26.3
6 | Ic_S4_P5E.1_K5.1_C5.1_H5.1_A5.1_[T6C]_[A7T]_F5.1_[T8A]_[A10C]_T5.1 (ssRNA) RNA: UUUGACAACUGAUCGUUCUUUCUUGUAUCUAUCUUCUUUCUCGAUCAGUUGUCUUU | 13.6
7 | Ic_S4_P5E.1_K5.1_C5.1_H5.1_A5.1_[A7T]_F5.1_[T8A]_[A10G]_T5.1 (ssRNA) RNA: UUUGACAACUGAUCGUUCUUUCUUGUAUUUAUGUUCUUUCUCGAUCAGUUGUCUUU | 12.4
8 | Ic_S4_P5E.1_K5.1_C5.1_H5.1_A5.1_[A7T]_F5.1_[T8C]_[T9A]_T5.1 (ssRNA) RNA: UUUGACAACUGAUCGUUCUUUCUUGUAUUUCAAUUCUUUCUCGAUCAGUUGUCUUU | 452
9 | Ic_S4_P5E.1_K5.1_C5.1_H5.1_A5.1_[T5C]_[T6C]_F5.1_[T8G]_[A10G]_T5.1 (ssRNA) RNA: UUUGACAACUGAUCGUUCUUUCUUGUACCAGUGUUCUUUCUCGAUCAGUUGUCUUU | 124
10 | Ic_S4_P5E.1_K5.1_C5.1_H5.1_A5.1_[T5C]_[T6C]_F5.1_[T8G]_[T9C]_[A10T]_T5.1 (ssRNA) RNA: UUUGACAACUGAUCGUUCUUUCUUGUACCAGCUUUCUUUCUCGAUCAGUUGUCUUU | 650
11 | Ic_S4_P5E.1_K5.1_C5.1_H5.1_A5.1_[T5A]_[T6C]_[A7G]_F5.1_[T9A]_[A10G]_T5.1 (ssRNA) RNA: UUUGACAACUGAUCGUUCUUUCUUGUAACGUAGUUCUUUCUCGAUCAGUUGUCUUU | 114
12 | Ic_S4_P5E.1_K5.1_C5.1_H5.1_A5.1_[A7C]_F5.1_[T8C]_[T9C]_T5.1 (ssRNA) RNA: UUUGACAACUGAUCGUUCUUUCUUGUAUUCCCAUUCUUUCUCGAUCAGUUGUCUUU | 141
13 | Ic_S4_P5E.1_K5.1_C5.1_H5.1_A5.1_[T5C]_[T6A]_[A7T]_F5.1_[T8G]_[A10T]_T5.1 (ssRNA) RNA: UUUGACAACUGAUCGUUCUUUCUUGUACAUGUUUUCUUUCUCGAUCAGUUGUCUUU | 6.77
14 | Ic_S4_P5E.1_K5.1_C5.1_H5.1_A5.1_[T5C]_[T6A]_[A7C]_F5.1_[T8C]_[A10G]_T5.1 (ssRNA) RNA: UUUGACAACUGAUCGUUCUUUCUUGUACACCUGUUCUUUCUCGAUCAGUUGUCUUU | 81
15 | Ic_S4_P5E.1_K5.1_C5.1_H5.1_A5.1_[T5A]_[T6C]_[A7C]_F5.1_[T8C]_[T9A]_[A10T]_T5.1 (ssRNA) RNA: UUUGACAACUGAUCGUUCUUUCUUGUAACCCAUUUCUUUCUCGAUCAGUUGUCUUU | 531
16 | Ic_S4_P5E.1_K5.1_C5.1_H5.1_A5.1_[T5C]_[T6C]_[A7C]_F5.1_[T9A]_[A10G]_T5.1 (ssRNA) RNA: UUUGACAACUGAUCGUUCUUUCUUGUACCCUAGUUCUUUCUCGAUCAGUUGUCUUU | 6.26
17 | Ic_S4_P5E.1_K5.1_C5.1_H5.1_A5.1_[T5C]_[A7T]_F5.1_[T8C]_[T9G]_[A10T]_T5.1 (ssRNA) RNA: UUUGACAACUGAUCGUUCUUUCUUGUACUUCGUUUCUUUCUCGAUCAGUUGUCUUU | 199
18 | Ic_S4_P5E.1_K5.1_C5.1_H5.1_A5.1_[T5A]_[T6C]_[A7T]_F5.1_[T8G]_[T9C]_[A10T]_T5.1 (ssRNA) RNA: UUUGACAACUGAUCGUUCUUUCUUGUAACUGCUUUCUUUCUCGAUCAGUUGUCUUU | 304
19 | Ic_S4_P5E.1_K5.1_C5.1_H5.1_A5.1_[T6G]_[A7C]_F5.1_[T8G]_[T9C]_[A10T]_T5.1 (ssRNA) RNA: UUUGACAACUGAUCGUUCUUUCUUGUAUGCGCUUUCUUUCUCGAUCAGUUGUCUUU | 542
20 | Ic_S4_P5E.1_K5.1_C5.1_H5.1_A5.1_[T6A]_[A7T]_F5.1_[T8A]_[T9A]_T5.1 (ssRNA) RNA: UUUGACAACUGAUCGUUCUUUCUUGUAUAUAAAUUCUUUCUCGAUCAGUUGUCUUU | 3.86
21 | Ic_S4_P5E.1_K5.1_C5.1_H5.1_A5.1_[T5A]_[T6A]_[A7C]_F5.1_[T9A]_[A10T]_T5.1 (ssRNA) RNA: UUUGACAACUGAUCGUUCUUUCUUGUAAACUAUUUCUUUCUCGAUCAGUUGUCUUU | 2.41
22 | Ic_S4_P5E.1_K5.1_C5.1_H5.1_A5.1_[T5A]_[T6A]_[A7C]_F5.1_[T9A]_T5.1 (ssRNA) RNA: UUUGACAACUGAUCGUUCUUUCUUGUAAACUAAUUCUUUCUCGAUCAGUUGUCUUU | 4.37
23 | Ic_S4_P5E.1_K5.1_C5.1_H5.1_A5.1_[T5C]_[T6A]_[A7C]_F5.1_[T8A]_[T9A]_T5.1 (ssRNA) RNA: UUUGACAACUGAUCGUUCUUUCUUGUACACAAAUUCUUUCUCGAUCAGUUGUCUUU | 15.5

Row | Binder | Kd [nM]
24 | Ic_S4_P5E.1_K5.1_C5.1_H5.1_A5.1_[A7T]_F5.1_[T8G]_[T9C]_[A10G]_T5.1 (ssRNA) RNA: UUUGACAACUGAUCGUUCUUUCUUGUAUUUGCGUUCUUUCUCGAUCAGUUGUCUUU | 196
25 | Ic_S4_P5E.1_K5.1_C5.1_H5.1_A5.1_[T6C]_[A7T]_F5.1_[T8A]_[T9G]_[A10C]_T5.1 (ssRNA) RNA: UUUGACAACUGAUCGUUCUUUCUUGUAUCUAGCUUCUUUCUCGAUCAGUUGUCUUU | 47.4
26 | Ic_S4_P5E.1_K5.1_C5.1_H5.1_A5.1_[T5C]_[T6G]_[A7T]_F5.1_[T8C]_[T9A]_[A10T]_T5.1 (ssRNA) RNA: UUUGACAACUGAUCGUUCUUUCUUGUACGUCAUUUCUUUCUCGAUCAGUUGUCUUU | 98.8
27 | Ic_S4_P5E.1_K5.1_C5.1_H5.1_A5.1_[T5C]_[T6G]_[A7T]_F5.1_[T9A]_T5.1 (ssRNA) RNA: UUUGACAACUGAUCGUUCUUUCUUGUACGUUAAUUCUUUCUCGAUCAGUUGUCUUU | 4.22
28 | Ic_S4_P5E.1_K5.1_C5.1_H5.1_A5.1_[T5C]_[A7T]_F5.1_[T8C]_[T9A]_[A10T]_T5.1 (ssRNA) RNA: UUUGACAACUGAUCGUUCUUUCUUGUACUUCAUUUCUUUCUCGAUCAGUUGUCUUU | 103
29 | Ic_S4_P5E.1_K5.1_C5.1_H5.1_A5.1_[T5C]_[T6C]_F5.1_[T9A]_[A10C]_T5.1 (ssRNA) RNA: UUUGACAACUGAUCGUUCUUUCUUGUACCAUACUUCUUUCUCGAUCAGUUGUCUUU | 2.7
30 | Ic_S4_P5E.1_K5.1_C5.1_H5.1_A5.1_[T5A]_[T6A]_[A7C]_F5.1_[T8G]_[T9C]_[A10C]_T5.1 (ssRNA) RNA: UUUGACAACUGAUCGUUCUUUCUUGUAAACGCCUUCUUUCUCGAUCAGUUGUCUUU | 586
31 | Ic_S4_P5E.1_K5.1_C5.1_H5.1_A5.1_[T5C]_[A7T]_F5.1_[T8C]_T5.1 (ssRNA) RNA: UUUGACAACUGAUCGUUCUUUCUUGUACUUCUAUUCUUUCUCGAUCAGUUGUCUUU | 2.44
32 | Ic_S4_P5E.1_K5.1_C5.1_H5.1_A5.1_[T5A]_[A7T]_F5.1_[T9C]_[A10T]_T5.1 (ssRNA) RNA: UUUGACAACUGAUCGUUCUUUCUUGUAAUUUCUUUCUUUCUCGAUCAGUUGUCUUU | 32.8
33 | Ic_S4_P5E.1_K5.1_C5.1_H5.1_A5.1_[T5C]_[T6G]_[A7T]_F5.1_[T8A]_[T9A]_[A10T]_T5.1 (ssRNA) RNA: UUUGACAACUGAUCGUUCUUUCUUGUACGUAAUUUCUUUCUCGAUCAGUUGUCUUU | 67.6
34 | Ic_S4_P5E.1_K5.1_C5.1_H5.1_A5.1_[T5C]_[T6C]_F5.1_[T8A]_[T9A]_[A10C]_T5.1 (ssRNA) RNA: UUUGACAACUGAUCGUUCUUUCUUGUACCAAACUUCUUUCUCGAUCAGUUGUCUUU | 158
35 | Ic_S4_P5E.1_K5.1_C5.1_H5.1_A5.1_[A7T]_F5.1_[T8C]_[T9G]_[A10T]_T5.1 (ssRNA) RNA: UUUGACAACUGAUCGUUCUUUCUUGUAUUUCGUUUCUUUCUCGAUCAGUUGUCUUU | 62.1
36 | Ic_S4_P5E.1_K5.1_C5.1_H5.1_A5.1_[T5A]_[A7T]_F5.1_[T8G]_[T9C]_[A10C]_T5.1 (ssRNA) RNA: UUUGACAACUGAUCGUUCUUUCUUGUAAUUGCCUUCUUUCUCGAUCAGUUGUCUUU | 400
37 | Ic_S4_P5E.1_K5.1_C5.1_H5.1_A5.1_[T5C]_F5.1_[T8A]_[T9A]_[A10T]_T5.1 (ssRNA) RNA: UUUGACAACUGAUCGUUCUUUCUUGUACUAAAUUUCUUUCUCGAUCAGUUGUCUUU | 18.5
38 | Ic_S4_P5E.1_K5.1_C5.1_H5.1_A5.1_[T5C]_[T6G]_[A7T]_F5.1_[T8G]_[T9G]_[A10T]_T5.1 (ssRNA) RNA: UUUGACAACUGAUCGUUCUUUCUUGUACGUGGUUUCUUUCUCGAUCAGUUGUCUUU | 195
39 | Ic_S4_P5E.1_K5.1_C5.1_H5.1_A5.1_[T5A]_[A7C]_F5.1_[T8C]_[T9G]_[A10G]_T5.1 (ssRNA) RNA: UUUGACAACUGAUCGUUCUUUCUUGUAAUCCGGUUCUUUCUCGAUCAGUUGUCUUU | > 2300
40 | Ic_S4_P5E.1_K5.1_C5.1_H5.1_A5.1_[T5A]_[T6C]_[A7T]_F5.1_[T8C]_[T9C]_[A10G]_T5.1 (ssRNA) RNA: UUUGACAACUGAUCGUUCUUUCUUGUAACUCCGUUCUUUCUCGAUCAGUUGUCUUU | > 2300
41 | Ic_S4_P5E.1_K5.1_C5.1_H5.1_A5.1_[T5G]_[A7T]_F5.1_[T8A]_[A10T]_T5.1 (ssRNA) RNA: UUUGACAACUGAUCGUUCUUUCUUGUAGUUAUUUUCUUUCUCGAUCAGUUGUCUUU | 85.3
42 | Ic_S4_P5E.1_K5.1_C5.1_H5.1_A5.1_[T6C]_[A7G]_F5.1_[T8C]_[T9C]_[A10G]_T5.1 (ssRNA) RNA: UUUGACAACUGAUCGUUCUUUCUUGUAUCGCCGUUCUUUCUCGAUCAGUUGUCUUU | 1730
43 | Ic_S4_P5E.1_K5.1_C5.1_H5.1_A5.1_[T6A]_[A7C]_F5.1_[T8G]_[T9G]_[A10T]_T5.1 (ssRNA) RNA: UUUGACAACUGAUCGUUCUUUCUUGUAUACGGUUUCUUUCUCGAUCAGUUGUCUUU | 510
44 | Ic_S4_P5E.1_K5.1_C5.1_H5.1_A5.1_[T5G]_[A7C]_F5.1_[T8G]_[A10G]_T5.1 (ssRNA) RNA: UUUGACAACUGAUCGUUCUUUCUUGUAGUCGUGUUCUUUCUCGAUCAGUUGUCUUU | 486
45 | UCUCUUUGUAUUUUGUCUCUU (ssRNA) [Ic_S1_P4E.1_K4.1_C4.1_H4.1_A4.1_[A6T]_F4.1_[A9G]_T4.1] | 15.2
